{"source": "paper PMC12277127", "about": "(Nucleic Acids Research, 2024)", "binders": {"B1": {"name": "SPRTN core region (26-240 aa), E112Q (domain or fragment, human, UniProt Q9H040 26-240, looked up)", "chain": "QESLSLVDASWELVDPTPDLQALFVQFNDQFFWGQLEAVEVKWSVRMTLCAGICSYEGKGGMCSIRLSEPLLKLRPRKDLVETLLHQMIHAYLFVTNNDKDREGHGPEFCKHMHRINSLTGANITVYHTFHDEVDEYRRHWWRCNGPCQHRPPYYGYVKRATNREPSAHDYWWAEHQKTCGGTYIKIKEPENYSKKGKGKAKLGKEPVLAAENKD", "notes": "SPRTN, human, residues 26-240 (MPD, ZBD and BR); plasmid pNIC28-SPRTN core (26-240), E112Q; also called SPRTN core (E112Q); SPRTN core E112Q; source: E. coli BL21(DE3), purified (Ni-NTA, TEV cleavage, SEC)"}, "B2": {"name": "SPRTN PIP-UBZ (320-489) (domain or fragment, human, UniProt Q9H040 320-489, looked up)", "chain": "VSNSHQNVLSNYFPRVSFANQKAFRGVNGSPRISVTVGNIPKNSVSSSSQRRVSSSKISLRNSSKVTESASVMPSQDVSGSEDTFPNKRPRLEDKTVFDNFFIKKEQIKSSGNDPKYSTTTAQNSSSSSSQSKMVNCPVCQNEVLESQINEHLDWCLEGDSIKVKSEESL", "notes": "SPRTN, human, PIP box to UBZ, residues 320-489; plasmid pCold I-SPRTN-PIP-UBZ (320-489); Its purification is not described; amine-coupled to a CM5 chip for SPR"}, "B3": {"name": "SPRTN core region (E112Q), enzymatically inactive (domain or fragment, human, UniProt Q9H040 26-240, looked up)", "chain": "B1 chain", "notes": "SPRTN, human, residues 26-240 (plasmid pNIC28-SPRTN (26-240)), variant E112Q; also called SPRTN core (E112Q); ΔMIU, ΔC: 26–240 aa; source: E. coli BL21(DE3), purified (Ni-NTA, TEV cleavage, HisTrap flow-through, SEC)"}}, "details_in_all_cases": "both partners purified", "key": {"M1-linked hexaUb": {"target": "T1, M1-linked hexaUb (UniProt P0CG48 1-456)", "T1 construct": "six ubiquitin units head to tail on one chain (M1-linked, linear); plasmid pET-24-hexaUb; also called M1-Ub6; source: E. coli BL21(DE3), purified (HisTrap, SEC)", "assay": "ITC; ubiquitin species titrated into the SPRTN fragment (arrows in Supplementary Figures 4A, 4D, 6A); 25°C; 50 mM HEPES pH 7.4, 50 mM NaCl, 0.5 mM TCEP-HCl; one-site binding model; at least 3 repeats, undetectable pairs 1 repeat"}, "M1-linked tetraUb": {"target": "T2, M1-linked tetraUb (UniProt P0CG48 1-304)", "T2 construct": "four ubiquitin units head to tail on one chain (M1-linked, linear); plasmid pET-24-tetraUb; also called M1-Ub4; source: E. coli BL21(DE3), purified (HisTrap, SEC)", "assay": "ITC; ubiquitin species titrated into the SPRTN fragment (arrows in Supplementary Figures 4A, 4D, 6A); 25°C; 50 mM HEPES pH 7.4, 50 mM NaCl, 0.5 mM TCEP-HCl; one-site binding model; at least 3 repeats, undetectable pairs 1 repeat"}, "M1-linked diUb": {"target": "T3, M1-linked diUb (UniProt P0CG48 1-152)", "T3 construct": "two ubiquitin units head to tail on one chain (M1-linked, linear); plasmid pET-47b-N-His-Ub2; The His tag was removed by HRV 3C only for the 15N-labelled M1-Ub2 of the NMR work, as far as the methods tell; also called M1-Ub2; M1-Ub2 WT; source: E. coli BL21(DE3), purified (HisTrap, SEC)", "assay": "ITC; ubiquitin species titrated into the SPRTN fragment (arrows in Supplementary Figures 4A, 4D, 6A); 25°C; 50 mM HEPES pH 7.4, 50 mM NaCl, 0.5 mM TCEP-HCl; one-site binding model; at least 3 repeats, undetectable pairs 1 repeat"}, "[1]": {"target": "T4, Proliferating Cell Nuclear Antigen (UniProt P12004 1-261)", "T4 construct": "PCNA; plasmid pET16b-PCNA (Addgene #134898); also called PCNA; source: E. coli BL21(DE3), purified (Q Sepharose, heparin, SEC)", "T4 sequence (P12004 whole entry)": "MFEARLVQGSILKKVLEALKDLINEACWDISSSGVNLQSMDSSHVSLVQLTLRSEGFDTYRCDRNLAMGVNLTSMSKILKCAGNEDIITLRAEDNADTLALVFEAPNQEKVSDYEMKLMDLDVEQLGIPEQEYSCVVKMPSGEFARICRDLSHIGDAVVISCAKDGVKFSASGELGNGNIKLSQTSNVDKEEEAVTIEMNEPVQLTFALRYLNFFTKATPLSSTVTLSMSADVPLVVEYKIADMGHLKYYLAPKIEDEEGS", "assay": "SPR; SPRTN PIP-UBZ amine-coupled to a CM5 chip (~1000 RU); analytes monoUb, PCNA, monoUb-PCNA; 50 mM HEPES pH 7.4, 50 mM NaCl, 0.5 mM TCEP-HCl; steady-state affinity model"}, "[2]": {"target": "T5, M1-linked diUb (His-tagged M1-Ub2) (UniProt P0CG48 1-76; P0CG48 1-76)", "T5 construct": "ubiquitin unit 1 of 2 (distal), joined head to tail (M1-linked); ubiquitin unit 2 of 2 (proximal); its I44 is printed as position 120 of the chain; also called linear diUb; source: E. coli BL21(DE3), purified (HisTrap, SEC)", "assay": "ITC; MicroCal PEAQ-ITC, 25°C, 50 mM HEPES pH 7.4, 50 mM NaCl, 0.5 mM TCEP–HCl; one-site binding model; who was in the syringe is not told"}, "[3]": {"target": "T6, M1-linked hexaUb (His-tagged M1-Ub6) (UniProt P0CG48 1-76; P0CG48 1-76; P0CG48 1-76; P0CG48 1-76; P0CG48 1-76; P0CG48 1-76)", "T6 construct": "ubiquitin unit 1 of 6, joined head to tail (M1-linked); ubiquitin unit 2 of 6; ubiquitin unit 3 of 6; ubiquitin unit 4 of 6; ubiquitin unit 5 of 6; ubiquitin unit 6 of 6; source: E. coli BL21(DE3), purified (HisTrap, SEC)", "assay": "ITC; MicroCal PEAQ-ITC, 25°C, 50 mM HEPES pH 7.4, 50 mM NaCl, 0.5 mM TCEP–HCl; one-site binding model; who was in the syringe is not told"}, "[4]": {"target": "T7, M1-linked tetraUb (His-tagged M1-Ub4) (UniProt P0CG48 1-76; P0CG48 1-76; P0CG48 1-76; P0CG48 1-76)", "T7 construct": "ubiquitin unit 1 of 4, joined head to tail (M1-linked); ubiquitin unit 2 of 4; ubiquitin unit 3 of 4; ubiquitin unit 4 of 4; source: E. coli BL21(DE3), purified (HisTrap, SEC)", "assay": "ITC; MicroCal PEAQ-ITC, 25°C, 50 mM HEPES pH 7.4, 50 mM NaCl, 0.5 mM TCEP–HCl; one-site binding model; who was in the syringe is not told"}}, "data": [{"binder": "B1", "values": [{"measurement": "Kd", "setting": "M1-linked hexaUb", "result": "34.8 ± 3.8", "unit": "µM"}, {"measurement": "Kd", "setting": "M1-linked tetraUb", "result": "69.7 ± 6.9", "unit": "µM"}, {"measurement": "Kd", "setting": "M1-linked diUb", "result": "132 ± 3.9", "unit": "µM"}]}, {"binder": "B2", "values": [{"measurement": "Kd", "setting": "[1]", "result": "12.8 ± 2", "unit": "µM"}]}, {"binder": "B3", "values": [{"measurement": "Kd", "setting": "[2]", "result": "~132", "unit": "µM"}, {"measurement": "Kd", "setting": "[3]", "result": "~35", "unit": "µM"}, {"measurement": "Kd", "setting": "[4]", "result": "~70", "unit": "µM"}]}]}
